Data taken from the DeepSol protein solubility set.

Experiment: soluble on expression in E. coli; label from the status in PepcDB or PDB records

Sequence	soluble on expression in E. coli
MTSTSFATIELLHDPRGFATLWLNRADKNNAFNAQMIRELILALDQVQGNAGLRFLLIRGRGRHFSAGADLAWMQQAADLDYNTNLDDARELAELMYNLARLKIPTLAVVQGAAFGGALGLISCCDMAIAAEDAQFCLSEVRIGLAPAVISPFVVQAIGERATRRYALTAERFDGRQARHIGLIAECYPVADLEHQTLGWIDNLLLNSPQAMRISKELLREVGSGELTPALRRYCESAIARIRTSAEGQEGLRAFLQKRTPGWQQRDDEPAALEDRQKDSQR	not soluble
KGTLYLVATPIGNLEDVTFRAIRTLKEADQIAAEDTRQTKKLLNHFDIATKLVSYHEHNKETMGKRLIDDLIEGRTIALVSDAGMPAISDPGYELVVSAIKEGIAVIPIPGA	not soluble
MEKEAFMEKLLSFMKEEAYKPLTVQELEEMLNITEAEEFKELVKALVALEEKGLIVRTRSDRYGIPEKMNLIKGKISAHAKGFAFLLPEDTSLSDVFIPPNELNTAMNGDIVMVRLNSQSSGSRQEGTVIRILERAIQRVVGTYTETRNFGFVIPDDKKITSDIFIPKNGKNGAAEGHKVVVKLTSYPEGRMNAEGEVETILGHKNDPGIDILSVIHKHGLPGEFPADAMEQASSTPDTIDEKDLKDRRDLRDQVIVTIDGADAKDLDDAVTVTKLDDGSYKLGVHIADVSHYVTENSPIDKEALERGTSVYLVDRVIPMIPHRLSNGICSLNPKVDRLTLSCEMTINSQGQVTEHEIFQSVIKTTERMTYSDVNKILVDDDEELKQKYEPLVPMFKDMERLAQILRDKRMDRGAVDFDFKEAKVLVDDEGAVKDVVIRERSVAEKLIEEFMLVANETVAEHFHWMNVPFIYRIHEEPNAEKLQKFLEFVTTFGYVVKGTAGNIHPRALQSILDAVRDRPEETVISTVMLRSMKQAKYDPQSLGHFGLSTEFYTHFTSPIRRYPDLIVHRLIRTYLINGKVDEATQEKWAERLPDIAEHTSSMERRAVDAERETDDLKKAEYMLDKIGEEFDGMISSVTNFGMFVELPNTIEGLVHVSFMTDDYYRFDEQHFAMIGERTGNVFRIGDEITVKVVDVNKDERNIDFEIVGMKGTPRRPRELDSSRSRKRGKPARKRVQSTNTPVSPAPSEEKGEWFTKPKKKKKKRGFQNAPKQKRKKKKLEHHHHHH	not soluble
MKILKDTVLFGLFASYADGVRNGEEKLSAAYDDFATLLATLPTDGTNICAQLRRLFYTKIELRGIQETVSTNGMERHVLFDVYIGKALALLDAEEQMMKEVLRHGGTEAMGLKEEAVCRNGKKGSVTLTWNGTDSDLIELVAALMAAGVIGTAEGRELKVVDVIRVFEEVFHLKINALYTKRGKVFDRCTDTTPFIDSLRRSYNRMLDARLA	not soluble
MHHIETTKLSRRAFLKKLTRTSFSAALMMAAASGYARWIEPAELTVTHHALSHPLIPKSFAGVKLLQFSDLHLGHYYGLERFYRIMGRINELGPDLVVFTGDLLHEANRYPHVDAVAEALAGVRAPLGKFCIYGNHDHGGYGTDIYRRLMERAGFRVLVNEHALVRRGHGAIAIAGSDDMMLGRPDWSKMTNGIPRATYTIALVHEPDGAIEARRFPIHVQLSGHSHGGQIQLPFIGPLITPPLSERYYEGFYHVGGLLLYVNRGLGTTRVPLRFFAPPELTVFSLAPG	not soluble
MGHHHHHHSHMSVPRGPIAQWADGAISPNGHRPQLRAASGEDSTEEALAAAAAPWEGGPVPGVDTSPFAKSLGHSRGEADLFDSGDIFSTGTGSQSVERTKPKAKIAENPANPPVGGKAKSPMFPALGEASSDDDLFQSAKPKPAKKTNPFPLLEDEDDLFTDQKVKKNETKSSSQQDVILTTQDIFEDDIFATEAIKPSQKTREKEKTLESNLFDDNIDIFADLTVKPKEKSKKKVEAKSIFDDDMDDIFSTGIQAKTTKPKSRSAQAAPEPRFEHKVSNIFDDPLNAFGGQ	not soluble
MKITFIGGGNMAGAMIGGLIHHGSTPSHICAVETDAMRRQQLAEACGVTVTASIPDGIHGSEIVILAVKPQQLRAVANQAAQFLQNKLVISIAAGVRASDLSQWLNRHEFVIRAMPNTPALIGEGITGLYALPLVDSRQKEQATTILEAIGTVIWVNEEAQLDAVTALSGSGPAYVFYFLEAMQEAGTQLGLTADTAKQLAMQTFLGATHLAAQSNDTLATLRMKVTSQGGTTEQALLSMEQADIRGAFIRAMHAACDRSRQMGEIFGRTLEHHHHHH	soluble
MSLGLSFFSKHLPIQEGQPWALKTPADIISTVEFNHTGELLATGDKGGRVVIFQREPESKNAPHSQGEYDVYSTFQSHEPEFDYLKSLEIEEKINKIKWLPQQNAAHSLLSTNDKTIKLWKITERDKRPEGYNLKDEEGKLKDLSTVTSLQVPVLKPMDLMVEVSPRRIFANGHTYHINSISVNSDCETYMSADDLRINLWHLAITDRSFNIVDIKPANMEDLTEVITASEFHPHHCNLFVYSSSKGSLRLCDMRAAALCDKHSKLFEEPEDPSNRSFFSEIISSVSDVKFSHSGRYMLTRDYLTVKVWDLNMEARPIETYQVHDYLRSKLCSLYENDCIFDKFECAWNGSDSVIMTGAYNNFFRMFDRNTKRDVTLEASRESSKPRAVLKPRRVCVGGKRRRDDISVDSLDFTKKILHTAWHPAENIIAIAATNNLYIFQDKVNSDMHEGHHHHHH	not soluble
MSPAYLCARPRTRASVTFRPTCGVNLPFHADRARTVSTSTNSATVLWLGYQAPNSISTAVSGAVANHAAKDLQKFQTALQSRNPDQRKVVIGYSYGSTVAGKAASSSELDVRARHFRGDGYSIALNNAVEIKGLEHHHHHH	not soluble
REQFGRDVMVVVDLSGSMAEKDFTSTNGLKISRLDAVKKVLNDFVKTRKGDRLGLILFGDAAFVQTPFTADHKVWLDLLNQTHVEMAGKSTHLGDAIGLTIKRFEDSNNSQPLSTTSREKVAIILTDGNDTDSYVPPMDAAKVAKVKGVRIHMIAIGDPQTVGEQALDMDTINTIADASGGQAFQALNQDELINAYAEISKLEPQLYQSTTYRT	not soluble
MGSDKIHHHHHHMFVGMDFGTTNSAVALAGADGSVEVLNFAAATGAASTLRSVLAFENARRDAQRRILPLAGHEAIEAYLHGDGDCRFLQSFKSYLTSRSFTSTAIYGAPYSLEELVALIIAQLRRTAEAAGAKVERVVAGRPVRFVAEGGEEEDAYATGRLVEAFAKAGITDVVFEYEPIAAAYYYESTLTRDQTVLVADFGGGTSDFCLIRLGPGRAGLARPEDAIIGTAGVGIAGDAFDRRIVEHGLSGHFGKYTTYVSDGKVLPMPAWVYAKLERWHHVAFLNTPSTMRLLRDLLRQVEHPDQVEQLLALIEHNLGYHLYRAVEQAKRDLSSADETVLRFDHDPVVVERRVTRAEFESWIGKELSAIESCVDGLLDGTGTALAQVDRVFLTGGSSLVPAVRAIFANRFGEDRLSAGGEFISVATGLAQRAREMG	not soluble
GMKPIKEIADQLELKDDILYPYGHYIAKIDHRFLKSLENHEDGKLILVTAVTPTPAGEGKTTTSIGLSMSLNRIGKKSIVTLREPSLGPTLGLKGGATGGGRSRVLPSDEINLHFTGDMHAVASAHNLLAAVLDSHIKHGNELKIDITRVFWKRTMDMNDRALRSIVIGLGGSANGFPREDSFIITAASEVMAILALSENMKDLKERLGKIIVALDADRKIVRISDLGIQGAMAVLLKDAINPNLVQTTEGTPALIHCGPFANIAHGTNSIIATKMAMKLSEYTVTEAGFGADLGAEKFIDFVSRVGGFYPNAAVLVATVRALKYHGGANLKNIHEENLEALKEGFKNLRVHVENLRKFNLPVVVALNRFSTDTEKEIAYVVKECEKLGVRVAVSEVFKKGSEGGVELAKAVAEAAKDVEPAYLYEMNDPVEKKIEILAKEIYRAGRVEFSDTAKNALKFIKKHGFDELPVIVAKTPKSISHDPSLRGAPEGYTFVVSDLFVSAGAGFVVALSGDINLMPGLPKKPNALNMDVDDSGNIVGVS	soluble
SLLLVIDVGNTNTVLGVYHDGKLEYHWRIETSRHKTEDEFGMILRSLFDHSGLMFEQIDGIIISSVVPPIMFALERMCTKYFHIEPQIVGPGMKTGLNIKYDNPKEVGADRIVNAVAAIHLYGNPLIVVDFGTATTYCYIDENKQYMGGAIAPGITISTEALYSRAAKLPRIEITRPDNIIGKNTVSAMQSGILFGYVGQVEGIVKRMKWQAKQKQKVIATGGLAPLIANESDCIDIVDPFLTLKGLELIYERNRVGSV	soluble
